According to patent US20240116985A1 (published 2024):
Starred links: 1 amine or outer side, 2 acyl side, 3 side chain; linkers in the order of their positions; H or OH if unused. Positions of bridges follow the written chain, without caps; N, C: chain ends. Non-standard residues stand in square brackets, D forms with d. Primed or numbered codes have the meaning given here. B5(17) = 2,2-bis(4-pentenyl)glycine = 2-amino-2-(pent-4-en-1-yl)hept-6-enoic acid, stitching residue, C=CCCCC(CCCC=C)(N[*:1])C(=O)[*:2]; B5(18) = 2,2-bis(4-pentenyl)glycine (2-amino-2-(pent-4-en-1-yl)hept-6-enoic acid), stitching residue, C=CCCCC(CCCC=C)(N[*:1])C(=O)[*:2]; B5(4) = 2,2-bis(4-pentenyl)glycine = 2-amino-2-(pent-4-en-1-yl)hept-6-enoic acid (stitching residue), C=CCCCC(CCCC=C)(N[*:1])C(=O)[*:2]; B5(3) = 2,2-bis(4-pentenyl)glycine (stitching residue), C=CCCCC(CCCC=C)(N[*:1])C(=O)[*:2]; B5 = 2-amino-2-(pent-4-en-1-yl)hept-6-enoic acid, C=CCCCC(CCCC=C)(N[*:1])C(=O)[*:2]; Phe(F5) = N[C@@H](Cc1c(F)c(F)c(F)c(F)c1F)C(=O)O; Phe(3,4-F2) = N[C@@H](Cc1ccc(F)c(F)c1)C(=O)O; Phe(3-F) = N[C@@H](Cc1cccc(F)c1)C(=O)O; Phe(3-Me) = Cc1cccc(C[C@H](N)C(=O)O)c1; Phe(4-F) = N[C@@H](Cc1ccc(F)cc1)C(=O)O; 2Nal = N[C@@H](Cc1ccc2ccccc2c1)C(=O)O; αAllylPro = C=CC[C@@]1(C(=O)O)CCCN1; hPhe = N[C@@H](CCc1ccccc1)C(=O)O; 3Pal = N[C@@H](Cc1cccnc1)C(=O)O; S8 = C=CCCCCCC[C@](C)(N)C(=O)O; Nle = CCCC[C@H](N)C(=O)O

T1: full-length beta-Catenin (Uniprot ID P35222) (Homo sapiens (Human), UniProt P35222 1-781)
T1 construct: The assay protocols call it full-length; also called B-Catenin; bCat
T1 sequence: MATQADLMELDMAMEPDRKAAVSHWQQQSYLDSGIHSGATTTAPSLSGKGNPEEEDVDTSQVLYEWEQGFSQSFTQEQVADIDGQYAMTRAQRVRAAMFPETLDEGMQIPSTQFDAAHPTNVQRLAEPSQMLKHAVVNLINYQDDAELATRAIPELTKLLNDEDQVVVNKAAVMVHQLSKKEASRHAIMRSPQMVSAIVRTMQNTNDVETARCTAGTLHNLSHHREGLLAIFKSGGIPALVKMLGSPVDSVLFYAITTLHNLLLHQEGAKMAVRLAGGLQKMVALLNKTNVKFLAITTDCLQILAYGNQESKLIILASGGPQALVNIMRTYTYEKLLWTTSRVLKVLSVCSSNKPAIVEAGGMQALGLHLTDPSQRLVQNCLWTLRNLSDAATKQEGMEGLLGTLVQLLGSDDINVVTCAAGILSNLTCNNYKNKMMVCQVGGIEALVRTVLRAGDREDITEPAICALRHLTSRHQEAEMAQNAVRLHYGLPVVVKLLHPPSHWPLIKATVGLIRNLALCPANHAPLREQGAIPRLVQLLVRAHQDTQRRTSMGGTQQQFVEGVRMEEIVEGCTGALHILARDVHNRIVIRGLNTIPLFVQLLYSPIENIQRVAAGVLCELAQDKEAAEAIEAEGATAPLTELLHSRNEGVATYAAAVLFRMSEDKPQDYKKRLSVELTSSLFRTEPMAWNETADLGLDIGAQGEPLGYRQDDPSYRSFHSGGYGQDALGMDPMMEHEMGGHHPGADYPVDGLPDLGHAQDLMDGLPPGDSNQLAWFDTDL

T2: full-length beta-Catenin (Uniprot ID P35222) (Homo sapiens (Human), UniProt P35222 1-781)
T2 construct: Used full-length in the FP and AlphaScreen assays; also called B-Catenin; bCat
T2 sequence: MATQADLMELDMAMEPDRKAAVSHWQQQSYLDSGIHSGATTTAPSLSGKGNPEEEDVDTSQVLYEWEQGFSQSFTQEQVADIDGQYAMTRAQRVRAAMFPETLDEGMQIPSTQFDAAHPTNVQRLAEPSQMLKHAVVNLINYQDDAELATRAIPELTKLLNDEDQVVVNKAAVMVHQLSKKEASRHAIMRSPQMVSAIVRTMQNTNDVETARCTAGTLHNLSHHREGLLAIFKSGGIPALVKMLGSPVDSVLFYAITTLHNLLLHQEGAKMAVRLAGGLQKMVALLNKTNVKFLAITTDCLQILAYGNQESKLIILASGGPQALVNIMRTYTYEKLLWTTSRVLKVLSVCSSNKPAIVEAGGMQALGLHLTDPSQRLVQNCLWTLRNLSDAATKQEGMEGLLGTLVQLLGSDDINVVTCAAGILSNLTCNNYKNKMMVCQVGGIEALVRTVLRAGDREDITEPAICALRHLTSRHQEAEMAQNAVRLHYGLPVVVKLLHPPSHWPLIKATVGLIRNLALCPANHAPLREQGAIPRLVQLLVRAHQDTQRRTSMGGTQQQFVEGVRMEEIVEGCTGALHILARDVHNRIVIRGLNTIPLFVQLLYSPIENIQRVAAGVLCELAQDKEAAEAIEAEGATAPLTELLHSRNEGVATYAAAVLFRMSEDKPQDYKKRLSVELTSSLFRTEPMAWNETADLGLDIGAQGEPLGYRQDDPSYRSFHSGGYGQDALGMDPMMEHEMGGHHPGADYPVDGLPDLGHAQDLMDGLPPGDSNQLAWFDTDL


biological target: T1, full-length beta-Catenin (Uniprot ID …); assay: AlphaScreen competition; full-length beta-catenin with biotin-labelled TCF4 10-53 peptide as competitor
Protocol: (§1) Equal volume of the titrated peptide was added to the plate and incubated for 15 minutes at 20° C. Then 4 uL of donor and 4 uL acceptor beads at 10 ug/mL were added to the plate, for a 16 uL reaction pool and protected from light for 60 minutes at 20° C. prior to read. Reads were performed on a CLARIOstar plate reader (BMG Labtech) in duplicate, and data were fitted to a 1:1 binding model with hill slope using an in-house script. All provided concentrations are final concentrations.

Row | EC50 | Binder
1 | 2.35 µM | Ac-[αAllylPro]DA[B5(4)]DYAAFV[S8]FWQ-NH2 (staple 1-4, 4-11, Stapled (stitched) peptide; also called Ac-PL3-Asp-Ala-B5-Asp-Tyr-Ala-Ala-Phe-Val-S8-Phe-Trp-Gln-NH2) [I-274]
2 | 2.93 µM | Ac-[αAllylPro]DA[B5]D[Phe(4-F)]AAFV[S8]FWQ-NH2 (staple 1-4, 4-11, Stapled (stitched) peptide; also called Ac-PL3-Asp-Ala-B5-Asp-4FF-Ala-Ala-Phe-Val-S8-Phe-Trp-Gln-NH2) [I-258]
3 | 4.18 µM | Ac-[αAllylPro]DA[B5]D[Phe(3,4-F2)]AAFV[S8]FWQ-NH2 (staple 1-4, 4-11, Stapled (stitched) peptide; also called Ac-PL3-Asp-Ala-B5-Asp-34FF-Ala-Ala-Phe-Val-S8-Phe-Trp-Gln-NH2) [I-259]
4 | 6.26 µM | XDAXEDAAFVXFWQ (not fully specified; N-terminal Ac; PL3 at 1; B5 at 4; S8 at 11; C-terminal NH2; staples PL3(1)-B5(4) and B5(4)-S8(11) by olefin metathesis, Stapled (stitched) peptide; also called Ac-PL3-Asp-Ala-B5-Glu-Asp-Ala-Ala-Phe-Val-S8-Phe-Trp-Gln-NH2) [I-281]
5 | 3.53 µM | XDAXEDAAFVXFWQ (not fully specified; N-terminal Ac; PL3 at 1; B5 at 4; S8 at 11; C-terminal NH2; staples PL3(1)-B5(4) and B5(4)-S8(11) by olefin metathesis, Stapled (stitched) peptide; also called Ac-PL3-Asp-Ala-B5-Glu-Asp-Ala-Ala-Phe-Val-S8-Phe-Trp-Gln-NH2) [I-282]
6 | 4.35 µM | Ac-[αAllylPro]DA[B5(4)]DDAAFV[S8]NWQ-NH2 (staple 1-4, 4-11, Stapled (stitched) peptide; also called Ac-PL3-Asp-Ala-B5-Asp-Asp-Ala-Ala-Phe-Val-S8-Asn-Trp-Gln-NH2) [I-284]
7 | 4 µM | Ac-[αAllylPro]DA[B5(17)]DDAAFV[S8][hPhe]WQ-NH2 (staple 1-4, 4-11, Stapled (stitched) peptide; also called Ac-PL3-Asp-Ala-B5-Asp-Asp-Ala-Ala-Phe-Val-S8-hPhe-Trp-Gln-NH2) [I-268]

biological target: T2, full-length beta-Catenin (Uniprot ID …); assay: AlphaScreen (nickel chelate) competition; full-length beta-catenin + biotin-TCF4(10-53) probe as competitor; peptide titrated
Protocol: as §1

Row | EC50 | Binder
8 | 2.66 µM | Ac-[αAllylPro]DA[B5(18)]DEAA[Phe(3,4-F2)]A[S8]F[2Nal]A-NH2 (staple 1-4, 4-11, Stapled peptide composition) [I-185]
9 | 2.18 µM | Ac-[αAllylPro]DA[B5(4)]D[hPhe]AAFV[S8]FWQ-NH2 (staple 1-4, 4-11, Stapled peptide composition) [I-195]
10 | ≥ 10 µM | Ac-[αAllylPro]DA[B5(3)][Nle]EAAFV[S8]FWQ-NH2 (staple 1-4, 4-11, Stapled peptide composition) [I-205]
11 | 6.16 µM | Ac-[αAllylPro]FA[B5(3)]DEAAFV[S8]FWQ-NH2 (staple 1-4, 4-11, Stapled peptide composition) [I-201]
12 | 7.28 µM | Ac-[αAllylPro][Phe(3-F)]A[B5(3)]DEAAFV[S8]FWQ-NH2 (staple 1-4, 4-11, Stapled peptide composition) [I-204]
13 | 2.14 µM | Ac-[αAllylPro]DA[B5(4)]HEAAFV[S8]FWQ-NH2 (staple 1-4, 4-11, Stapled peptide composition) [I-206]
14 | 7.88 µM | Ac-[αAllylPro]YA[B5(3)]DEAAFV[S8]FWQ-NH2 (staple 1-4, 4-11, Stapled peptide composition) [I-202]
15 | 3.77 µM | Ac-[αAllylPro]DA[B5(4)]DEAAFV[S8][Phe(F5)]WQ-NH2 (staple 1-4, 4-11, Stapled peptide composition) [I-183]
16 | 8.05 µM | Ac-[αAllylPro]DA[B5(4)][3Pal]EAAFV[S8]FWQ-NH2 (staple 1-4, 4-11, Stapled peptide composition) [I-213]
17 | 5.99 µM | Ac-[αAllylPro][Phe(3-Me)]A[B5(3)]DEAAFV[S8]FWQ-NH2 (staple 1-4, 4-11, Stapled peptide composition) [I-203]
18 | 6.15 µM | Ac-[αAllylPro]DA[B5(4)][hPhe]EAAFV[S8]FWQ-NH2 (staple 1-4, 4-11, Stapled peptide composition; this is the later-eluting isomer composition) [I-197]
19 | 5.51 µM | Ac-[αAllylPro]DA[B5(4)][hPhe]EAAFV[S8]FWQ-NH2 (staple 1-4, 4-11, Stapled peptide composition; this is the earlier-eluting isomer composition) [I-196]
